Data on ten substances can be found in patent publication US20260049105A1, “SELECTIVE MC4R LIGAND FOR TREATING OBESITY AND COGNITIVE LOSS” (ARIZONA BOARD OF REGENTS ON BEHALF OF THE UNIVERSITY OF …, priority 2022, published 2026).

One may read the IC50 as the concentration that gives 50% inhibition.

Assay [1] has as its target human melanocortin 1 receptor (human) (UniProt Q01726). Put plainly: competition with 125I-NDP-α-MSH, cells expressing hMC1R.
The target of assay [2] is human melanocortin 5 receptor (human) (UniProt P33032). Put plainly: cell-based or functional assay.
Chain of human melanocortin 5 receptor (human) (P33032 whole entry): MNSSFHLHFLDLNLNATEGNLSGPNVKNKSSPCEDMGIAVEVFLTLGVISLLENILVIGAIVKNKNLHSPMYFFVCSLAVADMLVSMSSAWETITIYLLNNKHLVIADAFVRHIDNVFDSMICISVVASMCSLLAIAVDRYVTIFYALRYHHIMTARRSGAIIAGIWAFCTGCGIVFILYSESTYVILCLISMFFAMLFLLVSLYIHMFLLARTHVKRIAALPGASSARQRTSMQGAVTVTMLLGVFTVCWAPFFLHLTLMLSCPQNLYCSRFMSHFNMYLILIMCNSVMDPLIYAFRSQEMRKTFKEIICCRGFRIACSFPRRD
The target of assay [3] is human melanocortin 4 receptor (human) (UniProt P32245). Put plainly: cell-based or functional assay.
Chain of human melanocortin 4 receptor (human) (P32245 whole entry): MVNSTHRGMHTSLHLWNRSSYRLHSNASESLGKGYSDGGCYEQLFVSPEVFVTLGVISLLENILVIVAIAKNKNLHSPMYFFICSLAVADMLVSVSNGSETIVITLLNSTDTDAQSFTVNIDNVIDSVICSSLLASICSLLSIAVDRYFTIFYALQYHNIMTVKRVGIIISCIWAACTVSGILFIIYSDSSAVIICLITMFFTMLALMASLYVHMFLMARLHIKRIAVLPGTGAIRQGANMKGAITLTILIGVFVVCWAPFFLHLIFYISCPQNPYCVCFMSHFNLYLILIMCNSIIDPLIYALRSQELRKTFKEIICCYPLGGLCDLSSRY
The target in assay [4] is human melanocortin 3 receptor (human) (UniProt P41968). Put plainly: cell-based or functional assay.
Chain of human melanocortin 3 receptor (human) (P41968 whole entry): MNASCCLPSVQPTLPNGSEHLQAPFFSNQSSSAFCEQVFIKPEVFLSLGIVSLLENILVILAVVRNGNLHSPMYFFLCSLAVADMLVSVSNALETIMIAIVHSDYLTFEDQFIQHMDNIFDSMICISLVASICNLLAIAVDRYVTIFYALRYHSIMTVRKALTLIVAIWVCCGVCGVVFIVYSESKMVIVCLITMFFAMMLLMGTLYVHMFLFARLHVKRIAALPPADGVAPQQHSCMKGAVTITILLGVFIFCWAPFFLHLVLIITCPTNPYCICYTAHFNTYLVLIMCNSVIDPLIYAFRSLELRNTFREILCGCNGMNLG
Assay [5] has as its target human melanocortin 1 receptor (human) (UniProt Q01726). Put plainly: cell-based or functional assay.
Assay [6] has as its target human melanocortin 3 receptor (human) (UniProt P41968). Put plainly: competition with 125I-NDP-α-MSH, cells expressing hMC3R.
Assay [7] deals with human melanocortin 4 receptor (human) (UniProt P32245). Put plainly: competition with 125I-NDP-α-MSH on whole HEK293 cells expressing hMC4R.
Assay [8] deals with human melanocortin 5 receptor (human) (UniProt P33032). Put plainly: competition with 125I-NDP-α-MSH, cells expressing hMC5R.
In assay [9] the target is human melanocortin 4 receptor (human) (UniProt P32245). Put plainly: plasmon waveguide resonance, hMC4R membranes.
Assay [10] shares this target. Put plainly: competition with 125I-NDP-α-MSH, ratio of IC50 values.
Assay [11] has the same target. Put plainly: competition with 125I-NDP-α-MSH on whole HEK293 cells expressing hMC4R. The source holds these as a separate data set.

Like-named read-outs stand apart in the source and are kept apart here.

Chain of human melanocortin 1 receptor (human) (Q01726 whole entry): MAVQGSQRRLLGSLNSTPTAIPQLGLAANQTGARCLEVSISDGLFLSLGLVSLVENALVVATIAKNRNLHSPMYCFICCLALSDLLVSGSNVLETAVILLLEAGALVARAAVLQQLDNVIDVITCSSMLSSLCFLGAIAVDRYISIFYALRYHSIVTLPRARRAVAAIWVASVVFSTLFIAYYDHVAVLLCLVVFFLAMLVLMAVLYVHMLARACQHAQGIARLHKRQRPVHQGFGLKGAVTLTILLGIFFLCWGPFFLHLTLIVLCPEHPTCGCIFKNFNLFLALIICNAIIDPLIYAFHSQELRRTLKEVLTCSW

Take “Ac-Arg-cyclo[Asp-Pip-D-Phe(4-Cl)-Arg-βTrp-Lys]-NH2 (peptide)”: the BE % (percent NDP-α-MSH displacement at 10 µM) turned out to be 100% in assay [1], 70% in assay [6] and 0% in assay [8]. Besides, the IC50 in assay [1] stood at 0.9 nM; in assay [6] it was 37 nM; in [7], 10 nM. Moreover, the Act % in [2] was found to be 21%; in assay [3] it was 57%; in [4], 24%; in assay [5], 67%. Besides, the EC50 (nM), cAMP accumulation in assay [2] was over 1000 nM; in [3], 240 nM; in assay [4] it was over 1000 nM; in assay [5] it was 99 nM. The substance further returned a BE% (percent [125I]NDP-α-MSH displacement at 10 µM) in assay [7] of 100%.

Turning to “Ac-Arg-cyclo[Asp-Pip-D-Phe(4-Cl)-βArg-Trp-Lys]-NH2 (peptide)”, the figures for the BE % (percent NDP-α-MSH displacement at 10 µM) in assay [1], in assay [6] and in [8] were 100%, 100% and 0%, respectively. The IC50 is 5 nM in [1], 108 nM in assay [6] and 8 nM in assay [7]. The Act % in assay [2] was determined as 38%; in [3] it was 66%; in [4], 46%; in [5], 89%. Further, the EC50 (nM), cAMP accumulation is over 1000 nM in assay [2], 110 nM in [3], 360 nM in [4] and 130 nM in assay [5]. Also, the BE% (percent [125I]NDP-α-MSH displacement at 10 µM) in assay [7] turned out to be 100%.

In turn, “Ac-Arg-cyclo[Asp-Pip-D-Phe(4-Cl)-βArg-βTrp-Lys]-NH2 (peptide)” showed a PWR resonance position, p-polarization (hMC4R sole 26.44) in [9] of 26.9 degrees. Moreover, in assay [1], the BE % (percent NDP-α-MSH displacement at 10 µM) came to 100% and the IC50 worked out at 27 nM. Moreover, in assay [10], the fold higher binding affinity to hMC4R than hMC1R worked out at 68 fold, the fold higher binding affinity to hMC4R than hMC3R was over 1000 fold and the fold higher binding affinity to hMC4R than hMC5R was over 1000 fold. In assay [2], this substance registered an Act % of 76% and an EC50 (nM), cAMP accumulation of 295 nM. In assay [3], this substance yielded an Act % of 87%; an EC50 (cAMP) of 4.2 nM; an EC50 (nM), cAMP accumulation of 4 nM. Moreover, in assay [4], the Act % was 63% and the EC50 (nM), cAMP accumulation was over 1000 nM. In [5], this substance yielded an Act % of 90% and an EC50 (nM), cAMP accumulation of 240 nM. This substance came in with a BE % (percent NDP-α-MSH displacement at 10 µM) in assay [6] of 10%. In [7], this substance returned a BE% (percent [125I]NDP-α-MSH displacement at 10 µM) of 100% and an IC50 of 0.4 nM. Besides, in assay [8], the BE % (percent NDP-α-MSH displacement at 10 µM) is 75% and the IC50 was 70 nM.

Turning to “Ac-Arg-cyclo[Asp-Pip-D-Phe(4-F)-Arg-βTrp-Lys]-NH2 (peptide)”, the BE % (percent NDP-α-MSH displacement at 10 µM) in assay [1], in assay [6] and in assay [8] was 100% throughout. The IC50 amounted to 0.2 nM in [1], 117 nM in assay [6] and 47 nM in assay [8]. Further, the Act % in [2] was 72%; in [3] it was 46%; in assay [4], 76%; in assay [5], 90%. The EC50 (nM), cAMP accumulation in assay [2] was found to be 530 nM; in assay [3] it was 630 nM; in [4] it was 450 nM; in [5], 64 nM. Besides, the BE% (percent [125I]NDP-α-MSH displacement at 10 µM) in [7] came out at 9%.

For “Ac-Arg-cyclo[Asp-Pip-D-Phe(4-F)-βArg-βTrp-Lys]-NH2 (peptide)”, the BE % (percent NDP-α-MSH displacement at 10 µM) was 0% in assay [1], 39% in [6] and 90% in [8]. Also, the Act % stood at 51% in [2], 120% in [3], 49% in assay [4] and 61% in assay [5]. The EC50 (nM), cAMP accumulation in [2], in assay [3], in assay [4] and in assay [5] was over 1000 nM each time. For the same substance, the figures for the IC50 in assay [6], in assay [7] and in [8] were 396 nM, 248 nM and 59 nM, respectively. The same substance yielded a BE% (percent [125I]NDP-α-MSH displacement at 10 µM) in assay [7] of 59%.

Turning to “Ac-Arg-cyclo[Asp-Pip-D-Phe-Arg-βTrp-Lys]-NH2 (peptide)”, the BE % (percent NDP-α-MSH displacement at 10 µM) in [1] turned out to be 100%; in assay [6] it was 60%; in [8], 66%. For the same substance, the results for the IC50 in [1], in assay [6] and in [8] were 3 nM, 149 nM and 350 nM, respectively. Besides, the Act % in assay [2] was determined as 95%; in assay [3] it was 63%; in assay [4], 88%; in assay [5], 88%. The EC50 (nM), cAMP accumulation in assay [2] was 580 nM; in assay [3], over 1000 nM; in [4], 680 nM; in assay [5] it was 120 nM. This substance displayed a BE% (percent [125I]NDP-α-MSH displacement at 10 µM) in [7] of 0%.

As to “Ac-Arg-cyclo[Asp-Pip-D-Phe-βArg-Trp-Lys]-NH2 (peptide)”, the BE % (percent NDP-α-MSH displacement at 10 µM) in assay [1] is 100%; in assay [6] it was 24%; in assay [8], 0%. For the same substance, the IC50 was 0.1 nM in assay [1], 600 nM in assay [6] and 0.4 nM in [7]. Besides, the Act % was 90% in assay [2], 67% in assay [3], 89% in assay [4] and 120% in [5]. In addition, the EC50 (nM), cAMP accumulation is over 1000 nM in assay [2], 47 nM in assay [3], over 1000 nM in assay [4] and 220 nM in assay [5]. Besides, the BE% (percent [125I]NDP-α-MSH displacement at 10 µM) in assay [7] was found to be 100%.

As to “Ac-Arg-cyclo[Asp-Pip-D-Phe-βArg-βTrp-Lys]-NH2 (peptide)”, the IC50 in assay [11] came to 1 nM; in assay [1], 270 nM; in assay [6], 7 nM; in assay [7], 0.1 nM; in [8], 607 nM. The BE % (percent NDP-α-MSH displacement at 10 µM) turned out to be 30% in assay [1], 100% in assay [6] and 46% in assay [8]. Moreover, the Act % in [2] was found to be 82%; in [3] it was 84%; in [4], 87%; in [5], 82%. The EC50 (nM), cAMP accumulation in assay [2] amounted to 290 nM; in assay [3], 16 nM; in assay [4] it was 120 nM; in [5], 190 nM. In assay [7], this substance registered a BE% (percent [125I]NDP-α-MSH displacement at 10 µM) of 100%.

In the case of “Melanotan II, Ac-Nle-c[Asp-His-DPhe-Arg-Trp-Lys]-NH2 (peptide)”, the BE % (percent NDP-α-MSH displacement at 10 µM) in assay [1], in assay [6] and in assay [8] was 100% throughout. Further, the IC50 in [1] amounted to 7 nM; in [6] it was 9 nM; in assay [8] it was 6 nM. The Act % in [2], in assay [3], in [4] and in assay [5] was 100% in each case. Besides, the EC50 (nM), cAMP accumulation in [2] amounted to 2 nM; in assay [3], 10 nM; in assay [4], 3 nM; in [5], 32 nM. The BE% (percent [125I]NDP-α-MSH displacement at 10 µM) in assay [7] worked out at 100%.

As for RM493 (peptide), in [9], the PWR left shift against hMC4R sole, p-polarization is 0.25 degrees and the PWR resonance position, s-polarization (sole MC4R 33.29) worked out at 33 degrees.
